Data on one molecule can be found in patent US20250332277A1, “PROTEIN TYROSINE KINASE 7 ANTIBODIES AND ANTIBODY-DRUG CONJUGATES” (Eli Lilly and Company, priority 2024, published 2025).

This experiment concerns the target human PTK-7 on cells (OV90-PTK-7, NCI-H446, OVCAR-3) (human) (UniProt Q13308). Kind of experiment: cell-based or functional assay.

Chain of human PTK-7 on cells (OV90-PTK-7, NCI-H446, OVCAR-3) (human) (Q13308 31-1070 limits assumed): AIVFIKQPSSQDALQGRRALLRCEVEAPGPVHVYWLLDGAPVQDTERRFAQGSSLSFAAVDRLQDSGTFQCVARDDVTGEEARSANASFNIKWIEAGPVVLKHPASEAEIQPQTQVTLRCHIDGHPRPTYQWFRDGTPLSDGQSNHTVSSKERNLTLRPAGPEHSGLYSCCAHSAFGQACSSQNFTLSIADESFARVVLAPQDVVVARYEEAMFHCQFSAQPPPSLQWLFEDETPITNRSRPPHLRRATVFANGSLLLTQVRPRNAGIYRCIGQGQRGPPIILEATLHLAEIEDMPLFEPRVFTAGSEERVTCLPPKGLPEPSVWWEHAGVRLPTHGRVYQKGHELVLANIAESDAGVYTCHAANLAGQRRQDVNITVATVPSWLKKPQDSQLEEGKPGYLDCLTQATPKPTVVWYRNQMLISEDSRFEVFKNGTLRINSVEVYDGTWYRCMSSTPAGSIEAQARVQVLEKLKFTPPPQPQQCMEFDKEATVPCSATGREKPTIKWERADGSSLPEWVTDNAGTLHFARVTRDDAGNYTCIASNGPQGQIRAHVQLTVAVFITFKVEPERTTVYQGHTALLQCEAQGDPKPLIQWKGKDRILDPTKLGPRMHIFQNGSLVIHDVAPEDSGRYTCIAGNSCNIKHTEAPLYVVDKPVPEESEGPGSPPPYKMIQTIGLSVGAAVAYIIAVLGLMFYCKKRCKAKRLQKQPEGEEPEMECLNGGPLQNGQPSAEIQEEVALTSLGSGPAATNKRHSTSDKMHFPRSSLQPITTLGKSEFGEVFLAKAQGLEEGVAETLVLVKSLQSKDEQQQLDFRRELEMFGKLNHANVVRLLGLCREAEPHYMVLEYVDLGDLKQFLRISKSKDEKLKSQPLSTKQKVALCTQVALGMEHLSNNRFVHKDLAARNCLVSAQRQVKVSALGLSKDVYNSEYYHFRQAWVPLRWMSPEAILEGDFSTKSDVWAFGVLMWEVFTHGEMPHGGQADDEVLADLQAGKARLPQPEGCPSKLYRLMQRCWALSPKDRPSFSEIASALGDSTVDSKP

B1: Cofetuzumab-Pelidotin (protein, INN chains, looked up)
VH: QVQLVQSGPEVKKPGASVKVSCKASGYTFTDYAVHWVRQAPGKRLEWIGVISTYNDYTYNNQDFKGRVTMTRDTSASTAYMELSRLRSEDTAVYYCARGNSYFYALDYWGQGTSVTVSS
VL: EIVLTQSPATLSLSPGERATLSCRASESVDSYGKSFMHWYQQKPGQAPRLLIYRASNLESGIPARFSGSGSGTDFTLTISSLEPEDFAVYYCQQSNEDPWTFGGGTKLEIK
modifications: pelidotin auristatin payload
As to B1, the Cytotoxicity IC50, OV90-PTK-7 cells (CellTiter-Glo, 5 days) is 0.0331 pM and the Cytotoxicity IC50, OVCAR-3 cells (CellTiter-Glo, 7 days) came to 2.53 nM.
